According to patent EP2074145B1:

Legend:
[1] = biological target: biotinylated complete Aβ1-42 peptide (Bachem) (UniProt P05067); assay: ELISA with biotinylated complete Aβ1-42 peptide
[2] = biological target: T1, peptide 13 (aa 13-21 of Aβ); assay: ELISA with biotinylated peptide Amyloid beta 13-21
T1 sequence (peptide, biotinylated (site not stated)): HHQKLVFFA

[3] = biological target: T1, peptide 13 (aa 13-21 of Aβ); assay: ELISA with biotinylated peptides (Mimotopes protocol)

Sequence of biotinylated complete Aβ1-42 peptide (Bachem) (P05067 672-713 limits assumed): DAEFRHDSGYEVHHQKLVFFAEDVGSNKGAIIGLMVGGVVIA

O.D [1]: 0.9 O.D | O.D [2]: 1.23 O.D | percent higher affinity than to the whole Aβ1-42 protein [3]: 36%
Substance: humanized anti-human amyloid beta monoclonal antibody hC2
